Assay results taken from the supplement of paper PMC9170038.

Tested on: MS2 coat protein
Test: apparent KD of MS2 coat protein; designed switch direction (-1 OFF switch, 1 ON switch): -1; higher = weaker reporter binding
Method in brief: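 Designed RNA switches with common flanks were made on Illumina chips by stalled E. coli RNA polymerase. Titration with SNAP-549-labelled MS2 coat protein doubled from 0.7 or 1.5 nM up to 3 µM. Apparent KD is each design's median over clusters after curve-fitting normalised fluorescence.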

[1] = input ligand: microRNA oligo, concentration not stated
[2] = Eterna round: R95, input ligand: FMN 200 uM
[3] = Eterna round: R95, input ligand: microRNA oligo, concentration not stated
[4] = Eterna round: R95, input ligand: none

| Sequence | apparent KD of MS2 coat protein (input ligand: FMN 200 uM) [nM] | apparent KD of MS2 coat protein [1] [nM] | apparent KD of MS2 coat protein (input ligand: none) [nM] | apparent KD of MS2 coat protein [2] [nM] | apparent KD of MS2 coat protein [3] [nM] | apparent KD of MS2 coat protein [4] [nM] |
| --- | --- | --- | --- | --- | --- | --- |
| AAAAAAUUGAGAGGAUAUGGUGCCGAAACGGUGCUAGAAGGUUUUAUAAAAAAACAUGAGGAUCACCCAUGUUCAUGUAAAAAA [AK ExNG1-1] (Eterna round: R96, puzzle: Exclusion NG 1) | 17.2 | 16.1 | 18 |  |  |  |
| AAAAAGCUAGGAUAUACAUGAGGAUCACCCAUGUGAGGGCACCGCGGGCGCGGGACCGGUAGAAGGAGCAAAAA [Exc;s3-III] (puzzle: Exclusion 3) |  |  |  | 23.5 | 24.9 | 29.1 |
| AAAAAGUGAGGAUAUACAUAAGGACCCGGGAGGGAAAUAAAACAUGAGGAUCACCCAUGUAGAAGGCACAAAAA [Exclss2-I] (puzzle: Exclusion 2) |  |  |  | 20.2 | 22.2 | 13.5 |
| AAAACAAAGCUAGGAUAUUGUCCGAUGUAGCGAUAAGAAGGAGCAGAGUACGUCUGGUCCACAUGAGGAUCACCCAUGUACAAA [Inmaon] (Eterna round: R96, puzzle: Exclusion NG 1) | 183 | 79.6 | 67.5 |  |  |  |
| AAAACAGUGUAGGAUAUGGCUGGGCUGAAAAUGCUAGAAGGACACACAUGAGGAUCACCCAUGUGACUUCGUGC [Atri] (puzzle: Exclusion 6) |  |  |  |  | 12.5 |  |
| AAAAGACAAGGAUAUACUUGGAAAAUAAAGCUUGAGGAAGUACUUGAGGAUCACCCAAGUAGAAGGUGUAGGCG [Edtiisre] (Eterna round: R97, puzzle: Exclusion 2) | 37.7 |  | 31.5 |  |  |  |
| AAAAGCAAGUAAAGAUUCUACAUGAGGAUCACCCAUGUGCUCGUCUUAUAAAGUACUAUCACGAAAGUGAUAGUACA [Sensor 3, v1 - 43] (puzzle: Sensor v3, turn-off variant 1) |  |  |  | 19.4 | 124 | 17.6 |
| AAAAUGUAAGGAUAUAGCCGGAACCCAGGGUCAAUACCCGGCUAGAAGGUACAUGAGGAUCACCCAUGUAAGAA [Excls4-VI] (puzzle: Exclusion 4) |  |  |  | 21.6 | 18.9 | 16.5 |
| AAAAUGUGAGGAUAUCACGGAGCUCCGCGUGACGAAGCUCCUGAGAAGGCACAUGAGGAUCACCCAUGUCCUGU [EX4 A.30] (Eterna round: R97, puzzle: Exclusion 4) | 296 |  | 54.4 |  |  |  |
| AAACCCAGAGGAUAUGCUGACUCCGACAUGAGGAUCACCCAUGUAGCGACUCUUCAUGCAGCAGAAGGUUGAUUUU [Eternabot (L1) Solution 66] (Eterna round: R97, puzzle: Exclusion 5) | 235 |  | 271 |  |  |  |
| AAACCUGAAGUUAGGAUAUGAAGUAUCACUAUACUUCAGAAGGAACUUGAGGAUCACCCAAGUAGCCGUGAGGC [jl-bmx4.4.66 ViennaUCT mod] (Eterna round: R97, puzzle: Brourd's mod of Exclusion 4) | 110 |  | 23 |  |  |  |
| AAAGAAACAGGAUAUGUAGGCUGCGACAUGAGGAUCACCCAUGUGUCGGUAUACAGUCCUAUAGAAGGGUUAUGAC [Tieder] (puzzle: Exclusion 5) |  |  |  |  | 13.1 |  |
| AAAGACCUGGAGGAUAUCAGACACACCAGCGUCUGAGAAGGCCAGACAUGAGGAUCACCCAUGUAGGGUUCUCC [EX6 B.22] (Eterna round: R97, puzzle: Exclusion 6) | 104 |  | 29.4 |  |  |  |
| AAAGAGCGAGGAUAUACAUGAGGAUCACCCAUGUAAAGAUGCAUGGUCUGAACGUCUGGUAGAAGGCGUAUGAA [Diatater] (puzzle: Exclusion 3) |  |  |  |  | 98.7 |  |
| AAAGGACGAGGAUAUACAUGAGGAUCACCCAUGUAAGAAGCAUAAUAAAAUAACUUAUGUAGAAGGCGUCCAAA [Mat - Exclusion 3 - Eli mod - D94] (Eterna round: R96, puzzle: Exclusion 3) |  | 17 |  |  |  |  |
| AAAGGGCGUGUGAGGAUAUCGACCCGACUUCCAGUCGAGAAGGCACAUGAGGAUCACCCAUGUGAUGACAGCGA [BmEX4 B.8] (Eterna round: R97, puzzle: Brourd's mod of Exclusion 4) | 38.4 |  | 16.2 |  |  |  |

| Sequence | apparent KD of MS2 coat protein (input ligand: FMN 200 uM) [nM] | apparent KD of MS2 coat protein [1] [nM] | apparent KD of MS2 coat protein (input ligand: none) [nM] | apparent KD of MS2 coat protein [2] [nM] | apparent KD of MS2 coat protein [3] [nM] | apparent KD of MS2 coat protein [4] [nM] |
| --- | --- | --- | --- | --- | --- | --- |
| AAAGGUGAGUAGGAUAUCCGCGCACGAAUAAAAGGAGAAGGACUUACAUGAGGAUCACCCAUGUAAGGUGGUAA [Ationbi] (puzzle: Exclusion 6) |  |  |  | 19.4 | 11.7 | 15.1 |
| AAAUAACAAGCAAGAUCCUACAUGAGGAUCACCCAUGUGCUCGUCUUGUAAAGUACUAUCACGAAAGUGAUAGUACA [Sensor 3, v1 - 12] (puzzle: Sensor v3, turn-off variant 1) |  |  |  | 23.4 | 219 | 23 |
| AAAUAACAAGCGAGAUCCUACAUGAGGAUCACCCAUGUGCUCGUCUUAUUAAGUACUAUCACGAAAGUGAUAGUACA [Mat - Sensor v3 - turn-off var 1 - Eli Mod - D66] (puzzle: Sensor v3, turn-off variant 1) |  |  |  | 18.4 | 239 | 18.4 |
| AAAUAAUAGAUAAAAUAAUACAUGAGGAUCACCCAUGUGGGAUGCUGAGGGUGAUACAAGCUUUUUGCUCGUCUUAU (puzzle: Sensor v3, turn-off variant 1) |  |  |  | 212 | 19.7 | 245 |
| AAAUAGAAAGGAUAUACAGGCAUCCUUACCAGAGCGAGCUCACAUGAGGAUCACCCAUGUAGAAGGUUCAUAGC [EX2 C.17] (Eterna round: R97, puzzle: Exclusion 2) | 34.9 |  | 31.8 |  |  |  |
| AAAUAGCAUGAGGAUAUUGGACUGUAUUCAGUACGAGAAGGCAUGACAUGAGGAUCACCCAUGUUUUGUUGGGA [EX6 #6] (Eterna round: R97, puzzle: Exclusion 6) | 222 |  | 67.5 |  |  |  |
| AAAUAGCGAGGAUAUACUGUAUACGAAAGUAUACGCAUGGCACAUGAGGAUCACCCAUGUAGAAGGCGCUAUAA (Eterna round: R97, puzzle: Exclusion 2) | 43.4 |  | 22.3 |  |  |  |
| AAAUAGCUUGAGGAUAUUGGAUAGGAUUUAGUGCGAGAAGGCAAGACAUGAGGAUCACCCAUGUUGUGUUGGGA [EX6 #13] (Eterna round: R97, puzzle: Exclusion 6) | 48.4 |  | 36.4 |  |  |  |
| AAAUCCGCUGAGGAUAUUAUGACUGAGAGGUCAUGAGAAGGCGGUACAUGAGGAUCACCCAUGUCUAUGGGCAA [Ex-6 Malc#27] (puzzle: Exclusion 6) |  |  |  | 377 | 292 | 553 |
| AAAUCGGAGGAGGAUAUUGUACAGGAAACGGUGCGAGAAGGUUUCACAUGAGGAUCACCCAUGUCAAAUAGCGA [EX6 #57] (Eterna round: R97, puzzle: Exclusion 6) | 21.3 |  | 21.2 |  |  |  |
| AAAUCGGUAGAGGAUAUUGUACAGGAAACGGUGCGAGAAGGUUACACAUGAGGAUCACCCAUGUUAAAUAGCGA [EX6 #54] (Eterna round: R97, puzzle: Exclusion 6) | 17.9 |  | 18.4 |  |  |  |
| AAAUUCUGAGGAUAUCGAUGUUUGUACAUGAGGAUCACCCAUGUCCUUUUUAUUUUUUCUCGAGAAGGCAGUGUAU [JR_E5_Sub100] (Eterna round: R96, puzzle: Exclusion 5) | 48.1 | 32 | 40.7 |  |  |  |
| AAAUUCUGAGGAUAUCGAUGUUUGUACAUGAGGAUCACCCAUGUCCUUUUUAUUUUUUCUCGAGAAGGCAGUGUAU [JR_E5_Sub100] (puzzle: Exclusion 5) |  |  |  |  | 34.2 |  |
| AAAUUGGUAGAGGAUAUCGUACAGGAAACGAUGCGAGAAGGCUGCACAUGAGGAUCACCCAUGUUUAGUUGCGA [EX6 #42] (Eterna round: R97, puzzle: Exclusion 6) | 19.2 |  | 19.4 |  |  |  |
| AACAAGCUUUAAAGAUCCCACAUGAGGAUCACCCAUGUGCUCGUCUUAUAACGUACUGUGACGAAAGUCACGGUACG [JL TOV1 3.25] (Eterna round: R97, puzzle: Sensor, turn-off variant 1) | 27.7 |  | 37.4 |  |  |  |
| AACAGUAGAGGAUAUACAUGAGGAUCACCCAUGUGAUAUUUACGUGGCGUACCACGAAGUAGAAGGCUACUGGA [JL Maslow Revisted mod 14] (Eterna round: R96, puzzle: Exclusion 3) | 512 | 32.5 | 34.9 |  |  |  |
